Assay results from paper PMC12246119 (Nature Communications, 2025).

Key:
Ran^Q69L(GTP) = Ran^Q69L(GTP) (human, UniProt P62826 1-216, Q69L); assay: cryo-EM structure; purified RanBP2^RBD4/SUMO1^Q94P-RanGAP1/Ubc9 incubated with excess Crm1 and Ran^Q69L(GTP), gel filtration in 20 mM HEPES pH 7.4, 110 mM potassium acetate, 2 mM magnesium acetate, 1 mM TCEP; lightly crosslinked with 250 µM BS3; 0.1% CHAPSO; 9.7 mg/mL; conditions: both partners purified
Crm1 = molecular target: T1, Crm1 (human, UniProt O14980 1-1071); assay: as above; conditions: both partners purified
T1 construct: Crm1 (exportin), human, full length, wild type; also called exportin Crm1; source: E. coli BL21(DE3) SoluBL21 with Codon Plus (RIL) plasmid, purified (Ni-NTA, Ulp1 cleavage, Superdex 200, MonoQ); not shown: His6, N-terminal, cleaved; Smt3, N-terminal, cleaved
T1 sequence (O14980 whole entry): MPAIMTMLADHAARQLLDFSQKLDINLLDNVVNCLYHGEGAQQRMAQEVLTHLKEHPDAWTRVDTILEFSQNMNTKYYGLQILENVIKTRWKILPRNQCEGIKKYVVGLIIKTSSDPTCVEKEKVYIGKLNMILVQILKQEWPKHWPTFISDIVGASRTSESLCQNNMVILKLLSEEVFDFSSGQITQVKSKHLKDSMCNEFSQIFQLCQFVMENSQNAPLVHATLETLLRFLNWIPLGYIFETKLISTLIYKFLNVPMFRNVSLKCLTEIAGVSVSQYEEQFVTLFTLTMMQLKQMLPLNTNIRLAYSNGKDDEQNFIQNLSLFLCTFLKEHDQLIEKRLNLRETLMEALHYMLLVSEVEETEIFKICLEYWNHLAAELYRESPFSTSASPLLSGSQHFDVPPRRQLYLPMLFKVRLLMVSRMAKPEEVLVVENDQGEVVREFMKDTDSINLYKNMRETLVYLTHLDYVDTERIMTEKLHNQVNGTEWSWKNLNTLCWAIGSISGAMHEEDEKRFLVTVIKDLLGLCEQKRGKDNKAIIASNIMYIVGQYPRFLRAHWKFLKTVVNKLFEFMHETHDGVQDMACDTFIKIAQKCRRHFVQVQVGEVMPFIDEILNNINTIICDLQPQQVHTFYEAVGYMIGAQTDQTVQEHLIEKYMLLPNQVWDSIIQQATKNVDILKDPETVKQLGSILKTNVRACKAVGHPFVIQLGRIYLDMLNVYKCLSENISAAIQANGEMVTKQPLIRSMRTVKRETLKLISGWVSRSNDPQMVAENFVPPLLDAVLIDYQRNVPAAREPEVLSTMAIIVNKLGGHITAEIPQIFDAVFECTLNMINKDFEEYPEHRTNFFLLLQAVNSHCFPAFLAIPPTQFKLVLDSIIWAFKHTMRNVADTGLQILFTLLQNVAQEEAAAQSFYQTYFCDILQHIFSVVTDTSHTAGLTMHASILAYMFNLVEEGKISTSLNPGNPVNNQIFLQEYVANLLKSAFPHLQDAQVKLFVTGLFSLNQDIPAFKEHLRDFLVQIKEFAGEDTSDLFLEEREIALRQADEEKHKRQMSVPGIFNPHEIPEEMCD

- binding result (Ran^Q69L(GTP)): binds
- binding result (Crm1): binds
B1: RanBP2^2446-3060 (RanBP2^RBD4) (domain or fragment, human, UniProt P49792 2446-3060, looked up)
chain: DSLITPHVSRSSTPRESPCGKIAVAVLEETTRERTDVIQGDDVADATSEVEVSSTSETTPKAVVSPPKFVFGSESVKSIFSSEKSKPFAFGNSSATGSLFGFSFNAPLKSNNSETSSVAQSGSESKVEPKKCELSKNSDIEQSSDSKVKNLFASFPTEESSINYTFKTPEKAKEKKKPEDSPSDDDVLIVYELTPTAEQKALATKLKLPPTFFCYKNRPDYVSEEEEDDEDFETAVKKLNGKLYLDGSEKCRPLEENTADNEKECIIVWEKKPTVEEKAKADTLKLPPTFFCGVCSDTDEDNGNGEDFQSELQKVQEAQKSQTEEITSTTDSVYTGGTEVMVPSFCKSEEPDSITKSISSPSVSSETMDKPVDLSTRKEIDTDSTSQGESKIVSFGFGSSTGLSFADLASSNSGDFAFGSKDKNFQWANTGAAVFGTQSVGTQSAGKVGEDEDGSDEEVVHNEDIHFEPIVSLPEVEVKSGEEDEEILFKERAKLYRWDRDVSQWKERGVGDIKILWHTMKNYYRILMRRDQVFKVCANHVITKTMELKPLNVSNNALVWTASDYADGEAKVEQLAVRFKTKEVADCFKKTFEECQQNLMKLQKGHVSLAAELSK
notes: RanBP2 (Nup358), human, residues 2446-3060: FG1, IR1-M-IR2, FG2 and RBD4; also called RanBP2 FG1-IR1-M-IR2-FG2-RBD4 fragment; hRanBP2^RBD4; source: E. coli BL21(DE3) Codon Plus (RIL), purified (Ni-NTA, Superdex 200)
